Legend:
Experiment in all cases: peptide array, immobilised linear 15-mers
[1] = target: T1, ANGPTL4-derived peptide P37 (human)
T1 peptide: HLRIQHLQSQFGLLD
Description: (§1) The ability of selected antibodies of invention, namely MOR022765 and MOR022770, to bind to linear 15-amino-acid peptides derived from the N-terminal coiled coil domain of human ANGPTL4 was tested. The peptides were immobilized on a glass surface, and the ability of MOR022765 and MOR022770 to bind to the immobilized peptides was evaluated using experimental methods optimized for linear peptide epitope mapping at JPT Peptide Technologies (Berlin, Germany).

[2] = target: T2, ANGPTL4-derived peptide P25 (human)
T2 peptide: DPEVLHSLQTQLKAQ
Description: as §1

[3] = target: T3, ANGPTL4-derived peptide P15 (human)
T3 construct: printed with S where human ANGPTL4 has C
T3 peptide: ALERRLSASGSASQG
Description: as §1

[4] = target: T4, ANGPTL4-derived peptide P2 (human)
T4 peptide: QSKSPRFASWDEMNV
Description: as §1

[5] = target: T5, ANGPTL4-derived peptide P22 (human)
T5 peptide: LPLAPESRVDPEVLH
Description: as §1

[6] = target: T6, ANGPTL4-derived peptide P14 (human)
T6 construct: printed with S where human ANGPTL4 has C
T6 peptide: QLSALERRLSASGSA
Description: as §1

[7] = target: T7, ANGPTL4-derived peptide P23 (human)
T7 peptide: APESRVDPEVLHSLQ
Description: as §1

[8] = target: T8, ANGPTL4-derived peptide P42 (human)
T8 peptide: HKHLDHEVAKPARRK
Description: as §1

[9] = target: T9, ANGPTL4-derived peptide P11 (human)
T9 peptide: REHAERTRSQLSALE
Description: as §1

[10] = target: T10, ANGPTL4-derived peptide P17 (human)
T10 construct: printed with S where human ANGPTL4 has C
T10 peptide: SASGSASQGTEGSTD
Description: as §1

[11] = target: T11, ANGPTL4-derived peptide P13 (human)
T11 construct: printed with S where human ANGPTL4 has C
T11 peptide: TRSQLSALERRLSAS
Description: as §1

[12] = target: T12, ANGPTL4-derived peptide P9 (human)
T12 peptide: QLGQGLREHAERTRS
Description: as §1

[13] = target: T13, ANGPTL4-derived peptide P35 (human)
T13 peptide: RHLEKQHLRIQHLQS
Description: as §1

[14] = target: T14, ANGPTL4-derived peptide P12 (human)
T14 peptide: AERTRSQLSALERRL
Description: as §1

[15] = target: T15, ANGPTL4-derived peptide P29 (human)
T15 peptide: KAQNSRIQQLFHKVA
Description: as §1

[16] = target: T16, ANGPTL4-derived peptide P24 (human)
T16 peptide: SRVDPEVLHSLQTQL
Description: as §1

[17] = target: T17, ANGPTL4-derived peptide P32 (human)
T17 peptide: LFHKVAQQQRHLEKQ
Description: as §1

[18] = target: T18, ANGPTL4-derived peptide P38 (human)
T18 peptide: IQHLQSQFGLLDHKH
Description: as §1

[19] = target: T19, ANGPTL4-derived peptide P21 (human)
T19 peptide: STDLPLAPESRVDPE
Description: as §1

[20] = target: T20, ANGPTL4-derived peptide P3 (human)
T20 peptide: SPRFASWDEMNVLAH
Description: as §1

[21] = target: T21, ANGPTL4-derived peptide P33 (human)
T21 peptide: KVAQQQRHLEKQHLR
Description: as §1

[22] = target: T22, ANGPTL4-derived peptide P18 (human)
T22 construct: printed with S where human ANGPTL4 has C
T22 peptide: GSASQGTEGSTDLPL
Description: as §1

[23] = target: T23, ANGPTL4-derived peptide P27 (human)
T23 peptide: SLQTQLKAQNSRIQQ
Description: as §1

[24] = target: T24, ANGPTL4-derived peptide P34 (human)
T24 peptide: QQQRHLEKQHLRIQH
Description: as §1

[25] = target: T25, ANGPTL4-derived peptide P43 (human)
T25 peptide: KHLDHEVAKPARRKR
Description: as §1

[26] = target: T26, ANGPTL4-derived peptide P28 (human)
T26 peptide: TQLKAQNSRIQQLFH
Description: as §1

[27] = target: T27, ANGPTL4-derived peptide P16 (human)
T27 construct: printed with S where human ANGPTL4 has C
T27 peptide: RRLSASGSASQGTEG
Description: as §1

[28] = target: T28, ANGPTL4-derived peptide P19 (human)
T28 construct: printed with S where human ANGPTL4 has C
T28 peptide: SQGTEGSTDLPLAPE
Description: as §1

[29] = target: T29, ANGPTL4-derived peptide P40 (human)
T29 peptide: QFGLLDHKHLDHEVA
Description: as §1

[30] = target: T30, ANGPTL4-derived peptide P39 (human)
T30 peptide: LQSQFGLLDHKHLDH
Description: as §1

[31] = target: T31, ANGPTL4-derived peptide P10 (human)
T31 peptide: QGLREHAERTRSQLS
Description: as §1

[32] = target: T32, ANGPTL4-derived peptide P20 (human)
T32 peptide: TEGSTDLPLAPESRV
Description: as §1

[33] = target: T33, ANGPTL4-derived peptide P41 (human)
T33 peptide: LLDHKHLDHEVAKPA
Description: as §1

[34] = target: T34, ANGPTL4-derived peptide P8 (human)
T34 peptide: GLLQLGQGLREHAER
Description: as §1

Measured: binding result

B1: MOR022765 (antibody, human IgG1, lambda, V domains shown)
VH: EVQLVQSGAEVKKPGESLKISCKGSGYSFSTYWISWVRQMPGKGLEWMGIIDPSSSDTRYSPSFQGQVTISADKSISTAYLQWSSLKASDTAMYYCARVYGYVYMDVWGQGTLVTVSS
VL: SYELTQPLSVSVALGQTARITCSGDNLGKKYAYWYQQKPGQAPVLVIYDKTKRPSGIPERFSGSNSGNTATLTISRAQAGDEADYYCASYDWYSSSYVFGGGTKLTVLG
notes: human IgG1
no binding: [1] | [2] | [3] | [4] | [5] | [6] | [7] | [8] | [9] | [10] | [11] | [12] | [13] | [14] | [15] | [16] | [17] | [18] | [19] | [20] | [21] | [22] | [23] | [24] | [25] | [26] | [27] | [28] | [29] | [30] | [31] | [32] | [33] | [34]

Source: patent publication US20160108110A1 (Novartis, published 2016)
